Results from patent publication US20100130424A1 (Janssen / Centocor, published 2010).
No end group written: not given here. *: point of attachment. Succinimide(1-Et,3-yl) = CCN1C(=O)CC(*)C1=O

T1: human CRH receptor type 2 (human, UniProt Q13324 1-411)
T1 sequence (looked up): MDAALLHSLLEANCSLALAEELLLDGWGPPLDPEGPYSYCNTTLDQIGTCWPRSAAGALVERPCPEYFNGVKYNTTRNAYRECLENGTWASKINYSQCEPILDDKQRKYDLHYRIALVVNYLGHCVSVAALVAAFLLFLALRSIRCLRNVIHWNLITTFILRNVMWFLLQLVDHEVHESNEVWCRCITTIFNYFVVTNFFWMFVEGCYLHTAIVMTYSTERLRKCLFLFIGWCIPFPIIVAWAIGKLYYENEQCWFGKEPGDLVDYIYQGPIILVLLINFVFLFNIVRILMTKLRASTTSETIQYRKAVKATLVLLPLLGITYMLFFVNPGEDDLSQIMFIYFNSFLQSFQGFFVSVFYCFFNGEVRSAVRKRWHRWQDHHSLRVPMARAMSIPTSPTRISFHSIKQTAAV


These binders were tested against T1, human CRH receptor type 2 (assay: cell-based or functional assay).

Row | Log DR against h-SCP, cAMP [log10 ratio] | pA50, cAMP | Binder
1 | 2.86 | ~6.82 -log M | TKFTLSCDVPTNIMNLLFNIAKAKNLRAQAAANAHLMAQI-NH2 [Cys-variant CRHR2 peptide agonist, SEQ ID NO: 8]
2 | 1.03 | 8.65 -log M | TKCTLSLDVPTNIMNLLFNIAKAKNLRAQAAANAHLMAQI-NH2 [Cys-variant CRHR2 peptide agonist, SEQ ID NO: 4]
3 | -0.08 | 9.55 -log M | TKFTLSLDVPTNIMNC(Succinimide(1-Et,3-yl))LFNIAKAKNLRAQAAANAHLMAQI-NH2 (N-terminus assumed; SMILES CC[C@H](C)[C@H](NC(=O)[C@H](CCC(N)=O)NC(=O)[C@H](C)NC(=O)[C@H](CCSC)NC(=O)[C@H](CC(C)C)NC(=O)[C@H](Cc1c[nH]cn1)NC(=O)[C@H](C)NC(=O)[C@H](CC(N)=O)NC(=O)[C@H](C)NC(=O)[C@H](C)NC(=O)[C@H](C)NC(=O)[C@H](CCC(N)=O)NC(=O)[C@H](C)NC(=O)[C@H](CCCNC(=N)N)NC(=O)[C@H](CC(C)C)NC(=O)[C@H](CC(N)=O)NC(=O)[C@H](CCCCN)NC(=O)[C@H](C)NC(=O)[C@H](CCCCN)NC(=O)[C@H](C)NC(=O)[C@@H](NC(=O)[C@H](CC(N)=O)NC(=O)[C@H](Cc1ccccc1)NC(=O)[C@H](CC(C)C)NC(=O)[C@H](CSC1CC(=O)N(CC)C1=O)NC(=O)[C@H](CC(N)=O)NC(=O)[C@H](CCSC)NC(=O)[C@@H](NC(=O)[C@H](CC(N)=O)NC(=O)[C@@H](NC(=O)[C@@H]1CCCN1C(=O)[C@@H](NC(=O)[C@H](CC(=O)O)NC(=O)[C@H](CC(C)C)NC(=O)[C@H](CO)NC(=O)[C@H](CC(C)C)NC(=O)[C@@H](NC(=O)[C@H](Cc1ccccc1)NC(=O)[C@H](CCCCN)NC(=O)[C@@H](N)[C@@H](C)O)[C@@H](C)O)C(C)C)[C@@H](C)O)[C@@H](C)CC)[C@@H](C)CC)C(N)=O) [Cys-variant of stresscopin peptide with N-Ethylsuccinimide (NES) reactive group, SEQ ID NO: 54]
4 | 1.3 | 8.28 -log M | TKFTLSLDCPTNIMNLLFNIAKAKNLRAQAAANAHLMAQI-NH2 [Cys-variant CRHR2 peptide agonist, SEQ ID NO: 10]
5 | 0.68 | 8.79 -log M | TKFTLSLDVPTNIMNLLFNC(Succinimide(1-Et,3-yl))AKAKNLRAQAAANAHLMAQI-NH2 (N-terminus assumed; SMILES CC[C@H](C)[C@H](NC(=O)[C@H](CCC(N)=O)NC(=O)[C@H](C)NC(=O)[C@H](CCSC)NC(=O)[C@H](CC(C)C)NC(=O)[C@H](Cc1c[nH]cn1)NC(=O)[C@H](C)NC(=O)[C@H](CC(N)=O)NC(=O)[C@H](C)NC(=O)[C@H](C)NC(=O)[C@H](C)NC(=O)[C@H](CCC(N)=O)NC(=O)[C@H](C)NC(=O)[C@H](CCCNC(=N)N)NC(=O)[C@H](CC(C)C)NC(=O)[C@H](CC(N)=O)NC(=O)[C@H](CCCCN)NC(=O)[C@H](C)NC(=O)[C@H](CCCCN)NC(=O)[C@H](C)NC(=O)[C@H](CSC1CC(=O)N(CC)C1=O)NC(=O)[C@H](CC(N)=O)NC(=O)[C@H](Cc1ccccc1)NC(=O)[C@H](CC(C)C)NC(=O)[C@H](CC(C)C)NC(=O)[C@H](CC(N)=O)NC(=O)[C@H](CCSC)NC(=O)[C@@H](NC(=O)[C@H](CC(N)=O)NC(=O)[C@@H](NC(=O)[C@@H]1CCCN1C(=O)[C@@H](NC(=O)[C@H](CC(=O)O)NC(=O)[C@H](CC(C)C)NC(=O)[C@H](CO)NC(=O)[C@H](CC(C)C)NC(=O)[C@@H](NC(=O)[C@H](Cc1ccccc1)NC(=O)[C@H](CCCCN)NC(=O)[C@@H](N)[C@@H](C)O)[C@@H](C)O)C(C)C)[C@@H](C)O)[C@@H](C)CC)C(N)=O) [Cys-variant of stresscopin peptide with N-Ethylsuccinimide (NES) reactive group, SEQ ID NO: 51]
6 | ~1.61 | ~7.93 -log M | CKFTLSLDVPTNIMNLLFNIAKAKNLRAQAAANAHLMAQI (NES-PEG (about 20 kDa) on Cys 1; C-terminal amide) [Pegylated Cys-variant CRHR2 peptide agonist (NES linker, PEG about 20 kDa), SEQ ID NO: 55]
7 | ~2.12 | ~7.45 -log M | TKFTLSLDCPTNIMNLLFNIAKAKNLRAQAAANAHLMAQI (NES-PEG (about 20 kDa) on Cys 9; C-terminal amide) [Pegylated Cys-variant CRHR2 peptide agonist (NES linker, PEG about 20 kDa), SEQ ID NO: 63]
8 | > 3.32 | ~6.22 -log M | TKFTLSCDVPTNIMNLLFNIAKAKNLRAQAAANAHLMAQI (NES-PEG (about 20 kDa) on Cys 7; C-terminal amide) [Pegylated Cys-variant CRHR2 peptide agonist (NES linker, PEG about 20 kDa), SEQ ID NO: 61]
9 | ~2.4 | ~7.14 -log M | TKFCLSLDVPTNIMNLLFNIAKAKNLRAQAAANAHLMAQI (NES-PEG (about 20 kDa) on Cys 4; C-terminal amide) [Pegylated Cys-variant CRHR2 peptide agonist (NES linker, PEG about 20 kDa), SEQ ID NO: 58]
10 | ~2.32 | ~7.22 -log M | TKFTCSLDVPTNIMNLLFNIAKAKNLRAQAAANAHLMAQI (NES-PEG (about 20 kDa) on Cys 5; C-terminal amide) [Pegylated Cys-variant CRHR2 peptide agonist (NES linker, PEG about 20 kDa), SEQ ID NO: 59]
11 | ~2.34 | ~7.2 -log M | TCFTLSLDVPTNIMNLLFNIAKAKNLRAQAAANAHLMAQI (NES-PEG (about 20 kDa) on Cys 2; C-terminal amide) [Pegylated Cys-variant CRHR2 peptide agonist (NES linker, PEG about 20 kDa), SEQ ID NO: 56]
12 | > 3.48 | ~6.06 -log M | TKFTLSLCVPTNIMNLLFNIAKAKNLRAQAAANAHLMAQI (NES-PEG (about 20 kDa) on Cys 8; C-terminal amide) [Pegylated Cys-variant CRHR2 peptide agonist (NES linker, PEG about 20 kDa), SEQ ID NO: 62]
13 | > 3.22 | ~6.32 -log M | TKFTLCLDVPTNIMNLLFNIAKAKNLRAQAAANAHLMAQI (NES-PEG (about 20 kDa) on Cys 6; C-terminal amide) [Pegylated Cys-variant CRHR2 peptide agonist (NES linker, PEG about 20 kDa), SEQ ID NO: 60]
14 | ~1.9 | ~7.64 -log M | TKCTLSLDVPTNIMNLLFNIAKAKNLRAQAAANAHLMAQI (NES-PEG (about 20 kDa) on Cys 3; C-terminal amide) [Pegylated Cys-variant CRHR2 peptide agonist (NES linker, PEG about 20 kDa), SEQ ID NO: 57]
15 | 0.61 | 9.07 -log M | TKFTCSLDVPTNIMNLLFNIAKAKNLRAQAAANAHLMAQI-NH2 [Cys-variant CRHR2 peptide agonist, SEQ ID NO: 6]
16 | 1.89 | 7.8 -log M | TKFTLSLCVPTNIMNLLFNIAKAKNLRAQAAANAHLMAQI-NH2 [Cys-variant CRHR2 peptide agonist, SEQ ID NO: 9]
17 | 2.08 | 7.6 -log M | TKFTLCLDVPTNIMNLLFNIAKAKNLRAQAAANAHLMAQI-NH2 [Cys-variant CRHR2 peptide agonist, SEQ ID NO: 7]
18 | 0.72 | 8.97 -log M | TCFTLSLDVPTNIMNLLFNIAKAKNLRAQAAANAHLMAQI-NH2 [Cys-variant CRHR2 peptide agonist, SEQ ID NO: 3]
19 | 0.05 | 9.42 -log M | TKFTLSLDVPTNIMNLLFC(Succinimide(1-Et,3-yl))IAKAKNLRAQAAANAHLMAQI-NH2 (N-terminus assumed; SMILES CC[C@H](C)[C@H](NC(=O)[C@H](CCC(N)=O)NC(=O)[C@H](C)NC(=O)[C@H](CCSC)NC(=O)[C@H](CC(C)C)NC(=O)[C@H](Cc1c[nH]cn1)NC(=O)[C@H](C)NC(=O)[C@H](CC(N)=O)NC(=O)[C@H](C)NC(=O)[C@H](C)NC(=O)[C@H](C)NC(=O)[C@H](CCC(N)=O)NC(=O)[C@H](C)NC(=O)[C@H](CCCNC(=N)N)NC(=O)[C@H](CC(C)C)NC(=O)[C@H](CC(N)=O)NC(=O)[C@H](CCCCN)NC(=O)[C@H](C)NC(=O)[C@H](CCCCN)NC(=O)[C@H](C)NC(=O)[C@@H](NC(=O)[C@H](CSC1CC(=O)N(CC)C1=O)NC(=O)[C@H](Cc1ccccc1)NC(=O)[C@H](CC(C)C)NC(=O)[C@H](CC(C)C)NC(=O)[C@H](CC(N)=O)NC(=O)[C@H](CCSC)NC(=O)[C@@H](NC(=O)[C@H](CC(N)=O)NC(=O)[C@@H](NC(=O)[C@@H]1CCCN1C(=O)[C@@H](NC(=O)[C@H](CC(=O)O)NC(=O)[C@H](CC(C)C)NC(=O)[C@H](CO)NC(=O)[C@H](CC(C)C)NC(=O)[C@@H](NC(=O)[C@H](Cc1ccccc1)NC(=O)[C@H](CCCCN)NC(=O)[C@@H](N)[C@@H](C)O)[C@@H](C)O)C(C)C)[C@@H](C)O)[C@@H](C)CC)[C@@H](C)CC)C(N)=O) [Cys-variant of stresscopin peptide with N-Ethylsuccinimide (NES) reactive group, SEQ ID NO: 52]
20 | ~2.22 | ~7.25 -log M | TKFTLSLDVPTNIMNLC(Succinimide(1-Et,3-yl))FNIAKAKNLRAQAAANAHLMAQI-NH2 (N-terminus assumed; SMILES CC[C@H](C)[C@H](NC(=O)[C@H](CCC(N)=O)NC(=O)[C@H](C)NC(=O)[C@H](CCSC)NC(=O)[C@H](CC(C)C)NC(=O)[C@H](Cc1c[nH]cn1)NC(=O)[C@H](C)NC(=O)[C@H](CC(N)=O)NC(=O)[C@H](C)NC(=O)[C@H](C)NC(=O)[C@H](C)NC(=O)[C@H](CCC(N)=O)NC(=O)[C@H](C)NC(=O)[C@H](CCCNC(=N)N)NC(=O)[C@H](CC(C)C)NC(=O)[C@H](CC(N)=O)NC(=O)[C@H](CCCCN)NC(=O)[C@H](C)NC(=O)[C@H](CCCCN)NC(=O)[C@H](C)NC(=O)[C@@H](NC(=O)[C@H](CC(N)=O)NC(=O)[C@H](Cc1ccccc1)NC(=O)[C@H](CSC1CC(=O)N(CC)C1=O)NC(=O)[C@H](CC(C)C)NC(=O)[C@H](CC(N)=O)NC(=O)[C@H](CCSC)NC(=O)[C@@H](NC(=O)[C@H](CC(N)=O)NC(=O)[C@@H](NC(=O)[C@@H]1CCCN1C(=O)[C@@H](NC(=O)[C@H](CC(=O)O)NC(=O)[C@H](CC(C)C)NC(=O)[C@H](CO)NC(=O)[C@H](CC(C)C)NC(=O)[C@@H](NC(=O)[C@H](Cc1ccccc1)NC(=O)[C@H](CCCCN)NC(=O)[C@@H](N)[C@@H](C)O)[C@@H](C)O)C(C)C)[C@@H](C)O)[C@@H](C)CC)[C@@H](C)CC)C(N)=O) [Cys-variant of stresscopin peptide with N-Ethylsuccinimide (NES) reactive group, SEQ ID NO: 53]
21 | 0.76 | 8.93 -log M | TKFCLSLDVPTNIMNLLFNIAKAKNLRAQAAANAHLMAQI-NH2 [Cys-variant CRHR2 peptide agonist, SEQ ID NO: 5]
22 | 0.72 | 8.97 -log M | CKFTLSLDVPTNIMNLLFNIAKAKNLRAQAAANAHLMAQI-NH2 [Cys-variant CRHR2 peptide agonist, SEQ ID NO: 2]
